The target in experiment [1] is T1, biotin-labeled cynomolgus monkey CD137 fused to human IgG1 Fc fragment (cynomolgus monkey; human, UniProt Q07011 24-186, limits assumed, biotin-labeled).
T1 construct: also called cyno CD137-Fc; not shown: human IgG1 Fc fragment
T1 chain: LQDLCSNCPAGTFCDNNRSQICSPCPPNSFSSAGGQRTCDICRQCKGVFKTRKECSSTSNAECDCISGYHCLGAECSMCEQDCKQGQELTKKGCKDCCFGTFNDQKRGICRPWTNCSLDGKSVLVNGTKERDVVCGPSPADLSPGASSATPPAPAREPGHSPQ
The experiment in a line: ELISA, IgG. (An ELISA detects its analyte on a solid surface through an enzyme-linked reagent.)

In experiment [2] the target is biotinylated CD3 epsilon epitope peptide. Briefly: SPR, one-arm Ab. (In general: SPR reads the build-up and loss of mass on a sensor chip optically.)

Positions count from the first letter of the chain named. Values joined by “and” are separate entries in the source; they are usually repeats but may differ in a detail not shown here. Equal values may be shown once.

B1: dBBDu197 (antibody, IgG1, V domains shown)
VH: QVQLVESGGGLVQPGRSLRLSCAASGFTFSNAWMHWVRQAPGKGLEWVAQIKDRSNAYAAYYAPSVKGRFTISRDDSKNSIYLQMNSLKTEDTAVYYCHYVHYASASTVLPAFGVDAWGQGTTVTVSS
VL: DIVMTQSPLSLPVTPGEPASISCRSSQSLVHSNRNTYLHWYQQKPGQAPRLLIYKVSNRFSGVPDRFSGSGSGTDFTLKISRVEAEDVGVYYCGQGTQVPYTFGQGTKLEIK
notes: IgG1
As to B1, the binding result in experiment [1] is listed as “binds”.

B2: dBBDu189 (antibody, IgG1, V domains shown)
VH: B1 VH with V48I, A57Q, A60T, S105Q, T108S, V109L, A112S
VL: B1 VL
notes: IgG1
Turning to B2, the binding result in experiment [1] is on record as “binds”.

B3: dBBDu199 (antibody, IgG1, V domains shown)
VH: B1 VH with R54K, S55Q, N56S, A57G, A59N, A60T
VL: B1 VL
notes: IgG1
B3: the binding result in experiment [1] is listed as “binds”.

B4: dBBDu167 (antibody, IgG1, V domains shown)
VH: B1 VH with R54K, S55G, A57L, S107G, T108G, V109G, A112G
VL: B1 VL
notes: IgG1
Regarding B4, the binding result in experiment [1] is recorded as “binds”.

B5: dBBDu202 (antibody, IgG1, V domains shown)
VH: B1 VH with R54K, S55G, A104S, S105A
VL: B1 VL
notes: IgG1
Take B5: the binding result in experiment [1] was “binds”.

B6: dBBDu186 (antibody, IgG1, V domains shown)
VH: B1 VH with A57Q, A60T, S105Q
VL: B1 VL
notes: IgG1
Regarding B6, in experiment [1], the binding result is on record as “binds”.

B7: dBBDu193 (antibody, IgG1, V domains shown)
VH: B1 VH with A57Q, A60T, A104S, S105A, V109L, A112S
VL: B1 VL
notes: IgG1
For the molecule B7, the binding result in experiment [1] is “binds”.

B8: dBBDu173 (antibody, IgG1, V domains shown)
VH: B1 VH with R54K, S55G, A57L, S107G, T108G, V109G, P111S, F113Y
VL: B1 VL
notes: IgG1
With B8, the binding result in experiment [1] is “binds”.

B9: dBBDu196 (antibody, IgG1, V domains shown)
VH: B1 VH with S55G, A59N, P64E
VL: B1 VL
notes: IgG1
Turning to B9, the binding result in experiment [1] is listed as “binds”.

B10: CE115HA340 one-arm antibody (antibody, human IgG1, kappa, L234A L235A, N297A)
VH: QVQLVESGGGLVQPGRSLRLSCAASGFTFSNAWMHWVRQAPGKGLEWVAQIKDKSNNYATYYAESVKGRFTISRDDSKNSIYLQMNSLKTEDTAVYYCRYVHYAAYYGVDAWGQGTTVTVSSASTKGPSVFPLAPSSKSTSGGTAALGCLVKDYFPEPVTVSWNSGALTSGVHTFPAVLQSSGLYSLSSVVTVPSSSLGTQTYICNVNHKPSNTKVDKKVEPKSCDKTHTCPPCPAPEAAGGPSVFLFPPKPKDTLMISRTPEVTCVVVDVSHEDPEVKFNWYVDGVEVHNAKTKPREEQYASTYRVVSVLTVLHQDWLNGKEYKCKVSNKALPAPIEKTISKAKGQPREPQVYTLPPSRCELTKNQVSLSCAVKGFYPSDIAVEWESNGQPENNYKTTPPVLDSDGSFFLVSKLTVDKSRWQQGNVFSCSVMHEALHNHYTQKSLSLSPDYKDDDDK
chain: EPKSSDKTHTCPPCPAPELLGGPSVFLFPPKPKDTLMISRTPEVTCVVVDVSHEDPEVKFNWYVDGVEVHNAKTKPREEQYNSTYRVVSVLTVLHQDWLNGKEYKCKVSNKALPAPIEKTISKAKGQPREPQVCTLPPSRDELTKNQVSLWCLVKGFYPSDIAVEWESNGQPENNYKTTPPVLDSDGSFFLYSKLTVDKSRWQQGNVFSCSVMHEALHNRYTQKSLSLSP
light: DIVMTQSPLSLPVTPGEPASISCRSSQSLVHSNRNTYLHWYQQKPGQAPRLLIYKVSNRFSGVPDRFSGSGSGTDFTLKISRVEAEDVGVYYCGQGTQVPYTFGQGTKLEIKRTVAAPSVFIFPPSDEQLKSGTASVVCLLNNFYPREAKVQWKVDNALQSGNSQESVTEQDSKDSTYSLSSTLTLSKADYEKHKVYACEVTHQGLSSPVTKSFNRGEC
notes: one-arm antibody
B10: the Kd in experiment [2] was 20 nM and 27 nM.

B11: NNS6f55 (antibody)
chain 1: QVQLVESGGGLVQPGRSLRLSCAASGFTFSNAWMHWVRQAPGKGLEWVAQIKDKSNNYATYYAESVKGRFTISRDDSKNSIYLQMNSLKTEDTAVYYCRYVHYAAAGRWLAYYGVDAWGQGTTVTVSSASTKGPSVFPLAPSSKSTSGGTAALGCLVKDYFPEPVTVSWNSGALTSGVHTFPAVLQSSGLYSLSSVVTVPSSSLGTQTYICNVNHKPSNTKVDKKVEPKSCDKTHTCPPCPAPEAAGGPSVFLFPPKPKDTLMISRTPEVTCVVVDVSHEDPEVKFNWYVDGVEVHNAKTKPREEQYASTYRVVSVLTVLHQDWLNGKEYKCKVSNKALPAPIEKTISKAKGQPREPQVYTLPPSRCELTKNQVSLSCAVKGFYPSDIAVEWESNGQPENNYKTTPPVLDSDGSFFLVSKLTVDKSRWQQGNVFSCSVMHEALHNHYTQKSLSLSPDYKDDDDK
chain 2: B10 chain
chain 3: B10 light
B11: binding in experiment [2] was put at a Kd of 31 nM.

B12: NHS6f52 (antibody)
chain 1: B11 chain 1 with A106Y, G107M, R108L, W109G, A111G
chain 2: B10 chain
chain 3: B10 light
In the case of B12, the affinity in experiment [2], expressed as Kd, was 52 nM.

B13: NNS6f62 (antibody)
chain 1: B11 chain 1 with A106N, R108G, W109T, L110R, A111H
chain 2: B10 chain
chain 3: B10 light
Consider B13, for which the affinity in experiment [2], expressed as Kd, was 61 nM.

B14: NNS6f47 (antibody)
chain 1: B11 chain 1 with A106H, G107F, R108M, L110W, A111G
chain 2: B10 chain
chain 3: B10 light
The molecule B14 came in with a dissociation constant (Kd) in experiment [2] of 31 nM.

B15: NNS6f68 (antibody)
chain 1: B11 chain 1 with A106V, G107E, R108W, W109G, L110R, A111W
chain 2: B10 chain
chain 3: B10 light
B15 had a Kd in experiment [2] of 45 nM.

B16: NNS6f54 (antibody)
chain 1: B11 chain 1 with A106F, G107E, R108W, W109V, L110G, A111W
chain 2: B10 chain
chain 3: B10 light
As for B16, binding in experiment [2] was characterised by a dissociation constant (Kd) of 29 nM.

B17: NHS6f17 (antibody)
chain 1: B11 chain 1 with A106W, R108E, W109G, L110V, A111V
chain 2: B10 chain
chain 3: B10 light
Take B17: the Kd in experiment [2] was 74 nM.

B18: NNS6f27 (antibody)
chain 1: B11 chain 1 with A106V, G107W, R108G, W109S, L110V, A111W
chain 2: B10 chain
chain 3: B10 light
In experiment [2], B18 yielded a Kd of 38 nM.

B19: NNS6f63 (antibody)
chain 1: B11 chain 1 with A106G, R108G, W109G, L110W, A111V
chain 2: B10 chain
chain 3: B10 light
In the case of B19, in experiment [2], the Kd is 69 nM.

B20: NNS6f72 (antibody)
chain 1: B11 chain 1 with A106E, R108I, L110W, A111G
chain 2: B10 chain
chain 3: B10 light
The molecule B20 yielded a Kd in experiment [2] of 150 nM.

B21: NNS6f51 (antibody)
chain 1: B11 chain 1 with A106G, G107F, R108L, W109V, A111W
chain 2: B10 chain
chain 3: B10 light
In experiment [2], B21 gave an equilibrium dissociation constant (Kd) of 31 nM.

B22: NNS6f59 (antibody)
chain 1: B11 chain 1 with A106L, G107L, R108V, W109Q, L110E, A111G
chain 2: B10 chain
chain 3: B10 light
The molecule B22 returned a Kd in experiment [2] of 200 nM.

B23: NNS6f67 (antibody)
chain 1: B11 chain 1 with A106G, G107L, R108L, W109R, L110A
chain 2: B10 chain
chain 3: B10 light
With B23, in experiment [2], binding was put at a Kd of 36 nM.

B24: NNS6f56 (antibody)
chain 1: B11 chain 1 with A106R, G107E, R108A, W109T, L110R, A111W
chain 2: B10 chain
chain 3: B10 light
For the molecule B24, the affinity in experiment [2], expressed as Kd, was 21 nM.

B25: NHS6f29 (antibody)
chain 1: B11 chain 1 with A106I, G107Y, R108Y, W109P, L110T, A111N
chain 2: B10 chain
chain 3: B10 light
Take B25: the affinity in experiment [2], expressed as Kd, was 90 nM.

B26: NNS6f73 (antibody)
chain 1: B11 chain 1 with A106W, G107V, R108V, W109G, L110V, A111R
chain 2: B10 chain
chain 3: B10 light
B26: the Kd in experiment [2] was 26 nM.

B27: NNS6f64 (antibody)
chain 1: B11 chain 1 with A106L, G107V, R108S, W109L, L110T, A111V
chain 2: B10 chain
chain 3: B10 light
In experiment [2], B27 came in with a Kd of 78 nM.

B28: NNS6f58 (antibody)
chain 1: B11 chain 1 with A106S, G107W, R108Q, W109V, L110S, A111R
chain 2: B10 chain
chain 3: B10 light
B28: in experiment [2], the Kd turned out to be 44 nM.

B29: NNS6f71 (antibody)
chain 1: B11 chain 1 with A106G, G107W, R108V, W109L, L110G, A111S
chain 2: B10 chain
chain 3: B10 light
B29 returned a dissociation constant (Kd) in experiment [2] of 51 nM.

B30: NHS6f50 (antibody)
chain 1: B11 chain 1 with A106L, G107T, R108G, W109G, A111G
chain 2: B10 chain
chain 3: B10 light
Regarding B30, the Kd in experiment [2] is 71 nM.

A word on the Kd: it is the concentration at which binding is half-saturated.

Source of the values: patent US20200377595A1 (Chugai, published 2020).
